T1: VZV gH/gL protein complex (CAMBRIDGEBIO, Cat No: 01-11-0045) (Varicella-Zoster Virus, UniProt P09260 18-802; P09308 22-159)
T1 construct: also called gHgL-Cambridge
T1 sequence 1: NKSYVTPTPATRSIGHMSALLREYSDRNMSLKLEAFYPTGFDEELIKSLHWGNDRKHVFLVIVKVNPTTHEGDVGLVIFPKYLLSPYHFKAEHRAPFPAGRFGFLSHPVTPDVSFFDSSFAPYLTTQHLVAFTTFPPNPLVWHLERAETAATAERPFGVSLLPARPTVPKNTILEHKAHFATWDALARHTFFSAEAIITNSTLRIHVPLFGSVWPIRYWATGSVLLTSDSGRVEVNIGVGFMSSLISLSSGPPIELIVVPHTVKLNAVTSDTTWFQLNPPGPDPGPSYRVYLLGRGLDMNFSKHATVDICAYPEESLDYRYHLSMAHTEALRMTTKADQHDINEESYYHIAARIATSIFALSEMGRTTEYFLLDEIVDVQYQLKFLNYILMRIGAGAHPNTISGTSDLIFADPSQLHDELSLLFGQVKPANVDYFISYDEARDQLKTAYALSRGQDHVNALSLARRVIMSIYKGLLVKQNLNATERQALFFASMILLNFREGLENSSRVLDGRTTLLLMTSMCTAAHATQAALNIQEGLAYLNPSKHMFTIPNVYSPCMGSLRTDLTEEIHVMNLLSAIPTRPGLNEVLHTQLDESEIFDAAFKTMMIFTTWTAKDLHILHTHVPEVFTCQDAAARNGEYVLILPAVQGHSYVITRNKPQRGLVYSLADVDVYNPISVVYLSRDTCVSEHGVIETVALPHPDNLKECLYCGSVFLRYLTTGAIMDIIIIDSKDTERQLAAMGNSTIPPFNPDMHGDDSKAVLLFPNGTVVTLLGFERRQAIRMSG
T1 sequence 2: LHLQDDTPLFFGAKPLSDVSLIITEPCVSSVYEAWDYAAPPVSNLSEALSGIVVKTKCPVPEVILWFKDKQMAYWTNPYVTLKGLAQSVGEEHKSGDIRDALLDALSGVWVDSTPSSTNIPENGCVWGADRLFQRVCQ

B1: fully human VZV monoclonal antibody TRN1024 (antibody, V domains shown)
VH: QVQLVQSGGGLVQPGGSLRLSCEASGFTFSSYWMSWVRQAPGKGLEWVANIKQDGSEKYYVDSVKGRFSISRDNAKNSLYLQMNSLRVEDTAVYYCAREGGGQGKWRLEYGMDVWGQGTTVIVSS
VL: not shown
B2: fully human VZV monoclonal antibody TRN1025 (antibody, V domains shown)
VH: QVQLVQSGGGLVQPGGSLRLSCVASGFTFSSYAMTWVRQAPGKGLEWVSTISGSGGSTFYADSVRGRFTISRDNSKNALYLQMNSLRAEDTAVYYCAKDRSYGGNQPFDYWGQGTLVTVSS
VL: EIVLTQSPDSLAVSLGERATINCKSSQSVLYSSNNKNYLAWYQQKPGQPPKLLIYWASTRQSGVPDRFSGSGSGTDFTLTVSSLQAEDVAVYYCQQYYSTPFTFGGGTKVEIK
B3: fully human VZV monoclonal antibody TRN1026 (antibody, V domains shown)
VH: QVQLVQSGAEVKKPGSSVKVSCKASGRTFSSYAYSWVRQAPGQGLEWMGRVIPVLGITNYAPKFQGKVTITVDKVTSTAFLELTGLKSDDTAVYYCARVSDDVLTGALDYWGQGTLVTVSS
VL: QSVLTQPPSVSGSPGQSVTISCTGTRSDVGSHNRVAWFQQSPGTAPKLMIYEVTNRPSGVPDRFSGSKSGNTASLTISGLQAEDEADYYCSSYTSTSTWVFGGGTKLTVL
B4: antibody variant derived from antibody TRN1026 (antibody, V domains shown)
VH: QVQLVQSGAEVKKPGSSVKVSCKASGRTFSSYAYSWVRQAPGQGLEWMGRVIPVLGITNYAPKFQDKVTITADKVTSTAFLELTGLKSDDTAVYYCARVSDDVLTGALDYWGQGTLVTVSS
VL: QSVLTQPPSVSGSPGQSVTISFTGTRSDVGSHNRVAWFQQSPGTAPKLMIYEVTNRPSGVPDRFSGSKSGNTASLTISGLQAEDEADYYCSSYTSTSTWVFGGGTKLTVL
notes: also called Antibody derived from TRN1026

Experiments:
[1] = target: T1, VZV gH/gL protein complex …; experiment: SPR (Biacore), antibody captured on anti-human IgG (Fc) CM5 chip, gH/gL complex as analyte
[2] = target: T1, VZV gH/gL protein complex …; experiment: ELISA, plate coated with 100 ng/well VZV gH/gL complex, detection Goat-Anti-IgG-Fab-HRP
[3] = target: T1, VZV gH/gL protein complex …; experiment: ELISA, culture supernatant

Row | Binder | Kd [1] | koff [1] | kon [1] | EC50 (read off the curve) [2] | EC50 [3]
1 | B1 | 36.7 nM | 0.000621 s⁻¹ | 16900 M⁻¹ s⁻¹ | ~0.6 µg/mL | 
2 | B2 | 13.4 nM | 0.000416 s⁻¹ | 31100 M⁻¹ s⁻¹ | ~0.5 µg/mL | 
3 | B3 | 2.66 nM | 0.000274 s⁻¹ | 103000 M⁻¹ s⁻¹ |  | 
4 | B4 |  |  |  |  | 0.05 µg/mL

Source: patent publication US20230192817A1 (ZHUHAI TRINOMAB PHARMACEUTICAL, published 2023)
